B1: Rituximab (antibody)
chain 1: QVQLQQPGAELVKPGASVKMSCKASGYTFTSYNMHWVKQTPGRGLEWIGAIYPGNGDTSYNQKFKGKATLTADKSSSTAYMQLSSLTSEDSAVYYCARSTYYGGDWYFNVWGAGTTVTVSA
chain 2: QIVLSQSPAILSASPGEKVTMTCRASSSVSYIHWFQQKPGSSPKPWIYATSNLASGVPVRFSGSGSGTSYSLTISRVEAEDAATYYCQQWTSNPPTFGGGTKLEIK

Columns and labels:
[1] = molecular target: FcγRIIIa 158F (human) (UniProt P08637); assay: BLI
[2] = molecular target: T1, CD20 (human, UniProt P11836); assay: FACS, Wil2-s cells, 4C
T1 chain: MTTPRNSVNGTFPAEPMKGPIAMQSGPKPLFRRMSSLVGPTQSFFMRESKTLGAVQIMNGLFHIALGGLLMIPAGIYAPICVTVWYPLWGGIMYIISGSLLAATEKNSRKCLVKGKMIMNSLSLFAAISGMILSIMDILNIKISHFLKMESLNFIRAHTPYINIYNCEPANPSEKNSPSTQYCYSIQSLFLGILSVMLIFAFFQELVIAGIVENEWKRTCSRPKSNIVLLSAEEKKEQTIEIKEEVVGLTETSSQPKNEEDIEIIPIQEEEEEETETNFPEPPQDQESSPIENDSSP

[3] = molecular target: T1, CD20; assay: FACS, Wil2-s cells, 4C
[4] = molecular target: T1, CD20; assay: FACS, Raji cells, 4C
[5] = molecular target: T1, CD20; assay: FACS, Raji cells, 4C

FcγRIIIa 158F (human), sequence (P08637 17-208): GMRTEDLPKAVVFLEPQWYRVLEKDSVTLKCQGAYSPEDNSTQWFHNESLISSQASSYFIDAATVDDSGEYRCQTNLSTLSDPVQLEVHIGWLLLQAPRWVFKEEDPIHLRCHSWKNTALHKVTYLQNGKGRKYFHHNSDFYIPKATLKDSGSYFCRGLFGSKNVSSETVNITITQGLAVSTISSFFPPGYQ

| Molecule | Kd [1] [nM] | Kd [2] [nM] | IC50 [3] [nM] | IC50 [4] [nM] | Kd [5] [nM] |
| --- | --- | --- | --- | --- | --- |
| Obinutuzumab (Gazyva) | 226 |  |  |  |  |
| B1 |  | 16 | 16.8 | 13.3 | 12.7 |

— US20230203169 (published 2023)
